How the values were obtained:
[1] = biological target: T1, rat trkA recombinantly expressed on NIH3T3 cells (rat, UniProt P35739 33-799); assay: cell-based or functional assay
[2] = biological target: trkA on parental PC12 cells (rat, UniProt P35739 33-799); assay: cell-based or functional assay
[3] = biological target: T1, rat trkA recombinantly expressed on …; assay: 125I-hNGF displacement, NIH3T3-trkA cells, 4 C
[4] = biological target: T2, p75 on A875 human melanoma cells (human, UniProt P08138 29-427); assay: 125I-hNGF displacement, A875 cells (p75), 4 C
T2 construct: whole, on cells; also called A875-p75
T2 sequence (looked up): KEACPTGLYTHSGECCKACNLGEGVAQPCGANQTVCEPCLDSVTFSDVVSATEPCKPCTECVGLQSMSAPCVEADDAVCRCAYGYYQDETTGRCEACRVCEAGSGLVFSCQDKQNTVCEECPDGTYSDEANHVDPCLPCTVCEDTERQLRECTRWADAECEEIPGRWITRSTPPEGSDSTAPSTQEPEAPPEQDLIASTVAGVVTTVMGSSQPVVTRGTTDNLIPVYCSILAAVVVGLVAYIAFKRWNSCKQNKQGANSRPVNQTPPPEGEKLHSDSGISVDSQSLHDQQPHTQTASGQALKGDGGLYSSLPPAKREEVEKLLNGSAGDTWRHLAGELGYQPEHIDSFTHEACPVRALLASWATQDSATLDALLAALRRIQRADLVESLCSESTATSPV

Chain of trkA on parental PC12 cells (P35739 33-799): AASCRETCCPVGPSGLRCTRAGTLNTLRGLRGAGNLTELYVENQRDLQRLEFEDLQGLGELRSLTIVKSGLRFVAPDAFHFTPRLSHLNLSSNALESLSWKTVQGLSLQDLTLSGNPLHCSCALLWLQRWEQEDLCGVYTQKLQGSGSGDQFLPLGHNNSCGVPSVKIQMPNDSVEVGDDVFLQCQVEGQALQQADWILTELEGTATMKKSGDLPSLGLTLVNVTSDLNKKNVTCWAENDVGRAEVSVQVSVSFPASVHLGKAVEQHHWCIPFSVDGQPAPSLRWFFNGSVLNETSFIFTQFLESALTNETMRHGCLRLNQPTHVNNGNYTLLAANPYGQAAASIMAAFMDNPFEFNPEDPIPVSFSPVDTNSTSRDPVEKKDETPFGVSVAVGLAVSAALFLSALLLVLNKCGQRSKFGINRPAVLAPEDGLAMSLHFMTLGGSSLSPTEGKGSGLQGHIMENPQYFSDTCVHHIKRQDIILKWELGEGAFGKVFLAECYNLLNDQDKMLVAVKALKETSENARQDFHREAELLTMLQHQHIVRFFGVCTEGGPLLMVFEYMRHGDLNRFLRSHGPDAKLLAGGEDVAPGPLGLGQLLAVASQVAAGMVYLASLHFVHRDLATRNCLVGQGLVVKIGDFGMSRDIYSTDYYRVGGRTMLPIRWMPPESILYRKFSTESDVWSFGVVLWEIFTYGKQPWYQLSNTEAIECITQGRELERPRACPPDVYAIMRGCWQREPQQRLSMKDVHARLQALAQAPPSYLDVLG
T1 sequence (P35739 33-799): as above

trkA autophosphorylation, maximal level at 1 × 10^-8 M, mutant/hNGF [1]: 0.07 ratio | PC12 neurite outgrowth EC50 [2]: 0.016 µg/mL | PC12 neurite outgrowth EC50 mutant/hNGF [2]: 114 ratio | IC50 mut/NGF [3]: > 40 ratio | IC50 [4]: 0.21 nM | IC50 mut/NGF [4]: 1 ratio
B1: hNGF Mut 5 (hBDNF N-terminal chimeric mutant) (ligand)
chain: HSDPAHRGEFSVCDSVSVWVGDKTTATDIKGKEVMVLGEVNINNSVFKQYFFETKCRDPNPVDSGCRGIDSKHWNSYCTTTHTFVKALTMDGKQAAWRFIRIDTACVCVLSRKAVRRA

Source: patent US7144983 (Genentech, dated 2006)
